Measured values published in article doi:10.1101/2024.04.30.591897 (bioRxiv, 2024).

Target: LC3B (1-120, G120C) (human, UniProt Q9GZQ8 1-120, G120C)
Assay: pull-down

- binding result: binds
B1: GST-ALG2^ΔN23 (domain or fragment)
chain: DQSFLWNVFQRVDKDRSGVISDTELQQALSNGTWTPFNPVTVRSIISMFDRENKAGVNFSEFTGVWKYITDWQNVFRTYDRDNSGMIDKNELKQALSGFGYRLSDQFHDILIRKFDRQGRGQIAFDDFIQGCIVLQRLTDIFRRYDTDQDGWIQVSYEQYLSMVFSIV
